Data reported in US20170313764A1 (ACADEMISCH MEDISCH CENTRUM, published 2017).

Assays:
[1] = target: E1E2 of HCV isolate AMS.1b.20877857 (genotype 1b) (Hepatitis C virus genotype 1b); assay: cell-based or functional assay
[2] = target: E1E2 of HCV isolate AMS.2b.20876551.kloon21 (genotype 2b) (Hepatitis C virus genotype 2b); assay: cell-based or functional assay
[3] = target: E1E2 of HCV isolate AMS.3a.21071213 (genotype 3a) (Hepatitis C virus genotype 3a); assay: cell-based or functional assay
[4] = target: E1E2 of HCV isolate UKN4.11.1 (genotype 4) (Hepatitis C virus genotype 4); assay: cell-based or functional assay
[5] = target: E1E2 of HCV isolate AMS.4d.20875969 (genotype 4d) (Hepatitis C virus genotype 4d); assay: cell-based or functional assay
[6] = target: T1, soluble E2-his6-sortase tag from HCV isolate AMS.2b.20876551.kloon21 (genotype 2b) (Hepatitis C virus genotype 2b); assay: SPR (IBIS MX96), antibody spotted on chip, soluble E2-his as analyte
T1 chain: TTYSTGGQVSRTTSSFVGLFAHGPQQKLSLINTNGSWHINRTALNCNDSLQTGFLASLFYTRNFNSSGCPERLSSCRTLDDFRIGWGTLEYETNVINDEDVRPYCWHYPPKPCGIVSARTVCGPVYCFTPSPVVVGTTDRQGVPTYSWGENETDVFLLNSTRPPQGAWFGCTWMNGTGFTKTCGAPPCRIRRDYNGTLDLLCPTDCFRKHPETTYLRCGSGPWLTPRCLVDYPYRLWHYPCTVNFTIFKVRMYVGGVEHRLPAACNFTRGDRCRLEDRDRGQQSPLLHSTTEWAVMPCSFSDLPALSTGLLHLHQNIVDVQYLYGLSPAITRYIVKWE

[7] = target: T2, HCV E1E2 protein in transfected 293T cells (CD81 competition assay; isolate not stated); assay: flow cytometry competition: E1E2-transfected 293T cells pre-incubated with antibody, then CD81-LEL (mouse Fc) added and detected; blocked ligand CD81-LEL
T2 construct: also called E1E2 transfected cells

[8] = target: T3, soluble E2-his6-sortase tag from HCV isolate H77 (genotype 1a) (Hepatitis C virus genotype 1a, strain …, UniProt P27958 384-717); assay: SPR (IBIS MX96), antibody spotted on chip, soluble E2-his as analyte
T3 construct: also called E2-his6-ST; E2 genotype 1a

[9] = target: E1E2 of HCV isolate H77 (genotype 1a), wild type (Hepatitis C virus genotype 1a, strain …, UniProt P27958 192-383; P27958 384-746); assay: cell-based or functional assay
[10] = target: E1E2 of HCV isolate H77 with single mutation N415A (Hepatitis C virus genotype 1a, strain …, UniProt P27958 192-383; P27958 384-746); assay: ELISA, GNA-captured E1E2 lysate; EC50 wild type / EC50 mutant
[11] = target: E1E2 of HCV isolate H77 with single mutation S424A (Hepatitis C virus genotype 1a, strain …, UniProt P27958 192-383; P27958 384-746); assay: as above
[12] = target: E1E2 of HCV isolate H77 with single mutation T435A (Hepatitis C virus genotype 1a, strain …, UniProt P27958 192-383; P27958 384-746); assay: as above
[13] = target: E1E2 of HCV isolate H77 with single mutation G436A (Hepatitis C virus genotype 1a, strain …, UniProt P27958 192-383; P27958 384-746); assay: as above
[14] = target: E1E2 of HCV isolate H77 with single mutation A439G (Hepatitis C virus genotype 1a, strain …, UniProt P27958 192-383; P27958 384-746); assay: as above
[15] = target: E1E2 of HCV isolate H77 with single mutation Y443A (Hepatitis C virus genotype 1a, strain …, UniProt P27958 192-383; P27958 384-746); assay: as above
[16] = target: E1E2 of HCV isolate H77 with single mutation Y485A (Hepatitis C virus genotype 1a, strain …, UniProt P27958 192-383; P27958 384-746); assay: as above
[17] = target: E1E2 of HCV isolate H77 with single mutation T526A (Hepatitis C virus genotype 1a, strain …, UniProt P27958 192-383; P27958 384-746); assay: as above
[18] = target: E1E2 of HCV isolate H77 with single mutation Y527A (Hepatitis C virus genotype 1a, strain …, UniProt P27958 192-383; P27958 384-746); assay: as above
[19] = target: E1E2 of HCV isolate H77 with single mutation W529A (Hepatitis C virus genotype 1a, strain …, UniProt P27958 192-383; P27958 384-746); assay: as above
[20] = target: E1E2 of HCV isolate H77 with single mutation G530A (Hepatitis C virus genotype 1a, strain …, UniProt P27958 192-383; P27958 384-746); assay: as above
[21] = target: E1E2 of HCV isolate H77 with single mutation D535A (Hepatitis C virus genotype 1a, strain …, UniProt P27958 192-383; P27958 384-746); assay: as above
[22] = target: E1E2 of HCV isolate H77 with single mutation W616A (Hepatitis C virus genotype 1a, strain …, UniProt P27958 192-383; P27958 384-746); assay: as above
[23] = target: E1E2 of HCV isolate H77 with single mutation R657A (Hepatitis C virus genotype 1a, strain …, UniProt P27958 192-383; P27958 384-746); assay: as above
[24] = target: E1E2 of HCV isolate H77 with single mutation D698A (Hepatitis C virus genotype 1a, strain …, UniProt P27958 192-383; P27958 384-746); assay: as above
[25] = target: E1E2 of HCV isolate H77 with single mutation L413A (Hepatitis C virus genotype 1a, strain …, UniProt P27958 192-383; P27958 384-746); assay: as above
[26] = target: E1E2 of HCV isolate H77 with single mutation G418A (Hepatitis C virus genotype 1a, strain …, UniProt P27958 192-383; P27958 384-746); assay: as above
[27] = target: E1E2 of HCV isolate H77 with single mutation W420A (Hepatitis C virus genotype 1a, strain …, UniProt P27958 192-383; P27958 384-746); assay: as above

B1: AT12-009 (antibody, V domains shown)
VH: SSVRVSCKASGDTFKTHAISWVRQAPGQGLEWVGGTVRQAPGDGLELLGGFVPILAPANDAQKFQGRVTITADGSTGPVYMDLSTLTSEDTAMYYCVTSLSEPIPRSCRGGRCYSGPFDAFGVWGQGTMVTVSS
VL: ETMLTQSPVTLSVSPGERATLSCRASQSIGTNLAWYQQKPGQAPRLLIHGASTRATGVPVSFSGSGSGTEFTLTISSLQSEDFAVYYCQQYNNWPLTFGGGTKVDFKR
- IC50, HCVpp neutralization [1]: 0.001 µg/mL
- IC90, HCVpp neutralization [1]: 0.13 µg/mL
- IC50, HCVpp neutralization [2]: 0.06 µg/mL
- IC90, HCVpp neutralization [2]: 6.17 µg/mL
- IC50, HCVpp neutralization [3]: 0.14 µg/mL
- IC90, HCVpp neutralization [3]: 5.34 µg/mL
- IC50, HCVpp neutralization [4]: 0.19 µg/mL
- IC90, HCVpp neutralization [4]: 14.1 µg/mL
- IC50, HCVpp neutralization [5]: 0.72 µg/mL
- IC90, HCVpp neutralization [5]: 47.4 µg/mL
- Kd [6]: 2.3 nM
- koff [6]: 0.0002 s⁻¹
- IC50 (read off the curve) [7]: ~2 µg/mL

B2: AT12-011 (antibody, V domains shown)
VH: QVQLVQSGAEVKKPGSSVKVSCKASGGTFSGYGITWVRQAPGQGLEWMGTIIPVSATETYAQRLQGRVTISADEHSTTSYMEVSSLKSEDTALYYCARHDYFWGTPLDIWGQGTMVIVSS
VL: EIVLTQSPDFQSVTPKEKVTITCRASQSIGSNLHWYQQKPGQSPKLLIKYASQSFSGVPSRFSGSGSGTDFTLTINSLEAEDAATYFCHQSYNLPRTFGGGTKVEIKR
- IC50, HCVpp neutralization [1]: 4.31 µg/mL
- IC90, HCVpp neutralization [1]: > 50 µg/mL
- IC50, HCVpp neutralization [2]: 27.5 µg/mL
- IC90, HCVpp neutralization [2]: > 50 µg/mL
- IC50, HCVpp neutralization [3]: > 50 µg/mL
- IC90, HCVpp neutralization [3]: > 50 µg/mL
- IC50, HCVpp neutralization [4]: > 50 µg/mL
- IC90, HCVpp neutralization [4]: > 50 µg/mL
- IC50, HCVpp neutralization [5]: > 50 µg/mL
- IC90, HCVpp neutralization [5]: > 50 µg/mL
- Kd [8]: 0.3 nM
- Kd [6]: 0.2 nM

B3: AT13-021 (antibody, V domains shown)
VH: QVQLVQSGAEVKKPGSSVKVSCKASGGTFNTHAFSWVRQAPGEGLEWMGGISPMSGTPNYAQKFQGRLTITADESTSTGYMELRSLTSEDTAVYYCARELIGYCTGGNCYSFGDFWGQGTLITVSS
VL: EIVMTQSPATLSVSPGERATLSCRASQSVSSHLAWYQHKPGQAPRLLISGASTRAVGVPARFSGSGSGTEFTLTISSLQSEDFAVYYCHQYNTWPRGFGQGTKVDFKR
- IC50, HCVpp neutralization [9]: 0.3 µg/mL
- IC90, HCVpp neutralization [9]: 9.98 µg/mL
- IC50, HCVpp neutralization [1]: 0.09 µg/mL
- IC90, HCVpp neutralization [1]: 5.67 µg/mL
- IC50, HCVpp neutralization [2]: 0.12 µg/mL
- IC90, HCVpp neutralization [2]: 8.84 µg/mL
- IC50, HCVpp neutralization [3]: 0.25 µg/mL
- IC90, HCVpp neutralization [3]: 12.3 µg/mL
- IC50, HCVpp neutralization [4]: 0.94 µg/mL
- IC90, HCVpp neutralization [4]: 13.9 µg/mL
- IC50, HCVpp neutralization [5]: 0.94 µg/mL
- IC90, HCVpp neutralization [5]: > 50 µg/mL
- relative binding, mutant vs wild type [10]: 119%
- relative binding, mutant vs wild type [11]: 17%
- relative binding, mutant vs wild type [12]: 21%
- relative binding, mutant vs wild type [13]: < 10%
- relative binding, mutant vs wild type [14]: 53%
- relative binding, mutant vs wild type [15]: 87%
- relative binding, mutant vs wild type [16]: 114%
- relative binding, mutant vs wild type [17]: 27%
- relative binding, mutant vs wild type [18]: 21%
- relative binding, mutant vs wild type [19]: 13%
- relative binding, mutant vs wild type [20]: < 10%
- relative binding, mutant vs wild type [21]: < 10%
- relative binding, mutant vs wild type [22]: < 10%
- relative binding, mutant vs wild type [23]: 88%
- relative binding, mutant vs wild type [24]: 80%
- relative binding, mutant vs wild type [25]: 185%
- relative binding, mutant vs wild type [26]: 131%
- relative binding, mutant vs wild type [27]: 103%
- Kd [8]: 14.2 nM
- koff [8]: 0.00036 s⁻¹
- Kd [6]: 2 nM
- koff [6]: 0.0001 s⁻¹
